Measurements taken from patent publication US20170115293A1.

Target: FAS (CD95, APO-1) death receptor (human) (UniProt P25445)
Assay: cell-based or functional assay

UniProt P25445, sequence (P25445 26-335): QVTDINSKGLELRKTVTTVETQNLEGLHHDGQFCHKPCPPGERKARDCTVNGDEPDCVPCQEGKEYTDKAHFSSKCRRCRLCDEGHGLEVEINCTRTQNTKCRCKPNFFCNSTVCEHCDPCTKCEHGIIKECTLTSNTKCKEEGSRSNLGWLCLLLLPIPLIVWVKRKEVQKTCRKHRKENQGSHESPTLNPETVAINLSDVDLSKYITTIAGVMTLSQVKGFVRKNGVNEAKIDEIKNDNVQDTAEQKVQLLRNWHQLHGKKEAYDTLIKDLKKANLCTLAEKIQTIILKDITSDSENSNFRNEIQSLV

Q: What does the source list for “CH11, a FAS agonistic (stimulating) antibody (monoclonal mouse antibody, cat. no. 05-201; EMD Millipore)”?
A: clonogenic cell survival of SUM159: radiation dose to achieve a surviving fraction of 0.1: 3.25 Gy; clonogenic cell survival of SUM159 after irradiation: dose-modifying factor: 2.5
